From US20190351013

Target: HPV16 L2 minor capsid protein (UniProt P03107)
Sequence (P03107 whole entry): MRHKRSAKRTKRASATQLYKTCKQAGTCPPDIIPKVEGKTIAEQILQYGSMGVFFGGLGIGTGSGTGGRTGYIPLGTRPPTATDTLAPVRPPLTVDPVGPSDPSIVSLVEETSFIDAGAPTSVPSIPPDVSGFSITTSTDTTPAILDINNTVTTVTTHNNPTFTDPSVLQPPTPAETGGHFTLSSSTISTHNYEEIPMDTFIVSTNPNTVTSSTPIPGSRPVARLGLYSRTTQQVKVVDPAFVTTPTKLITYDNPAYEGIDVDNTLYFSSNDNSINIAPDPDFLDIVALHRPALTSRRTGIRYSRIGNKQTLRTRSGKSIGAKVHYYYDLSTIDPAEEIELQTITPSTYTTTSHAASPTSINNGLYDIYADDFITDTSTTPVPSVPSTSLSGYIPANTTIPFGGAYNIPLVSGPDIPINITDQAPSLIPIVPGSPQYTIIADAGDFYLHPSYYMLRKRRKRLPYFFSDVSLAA

recombinant His-furin
cleavage of HPV16 L2 by furin, immunoblot with anti-HPV16 polyclonal antibody: furin cleaves the L2 protein in the absence of polyR and FI
